Results: IntAct's records for PubMed 33758649

B1: Protein PALS1 (Homo sapiens), Q8N3R9 (parent)
chain: MTTSHMNGHVTEESDSEVKNVDLASPEEHQKHREMAVDCPGDLGTRMMPIRRSAQLERIRQQQEDMRRRREEEGKKQELDLNSSMRLKKLAQIPPKTGIDNPMFDTEEGIVLESPHYAVKILEIEDLFSSLKHIQHTLVDSQSQEDISLLLQLVQNKDFQNAFKIHNAITVHMNKASPPFPLISNAQDLAQEVQTVLKPVHHKEGQELTALLNTPHIQALLLAHDKVAEQEMQLEPITDERVYESIGQYGGETVKIVRIEKARDIPLGATVRNEMDSVIISRIVKGGAAEKSGLLHEGDEVLEINGIEIRGKDVNEVFDLLSDMHGTLTFVLIPSQQIKPPPAKETVIHVKAHFDYDPSDDPYVPCRELGLSFQKGDILHVISQEDPNWWQAYREGDEDNQPLAGLVPGKSFQQQREAMKQTIEEDKEPEKSGKLWCAKKNKKKRKKVLYNANKNDDYDNEEILTYEEMSLYHQPANRKRPIILIGPQNCGQNELRQRLMNKEKDRFASAVPHTTRSRRDQEVAGRDYHFVSRQAFEADIAAGKFIEHGEFEKNLYGTSIDSVRQVINSGKICLLSLRTQSLKTLRNSDLKPYIIFIAPPSQERLRALLAKEGKNPKPEELREIIEKTREMEQNNGHYFDTAIVNSDLDKAYQELLRLINKLDTEPQWVPSTWLR

Variants of: B1
Details: with vemp_sars E
F318W was tested, and the “effect of a mutation on the interaction” value was “increasing interaction strength”.
